Changes are numbered by the printed parent chain. Names and notes keep the numbering of the source.
T1: rHuman Erythropoietin R/Fc Chimera (human, UniProt P19235 25-250)
T1 construct: also called EPO R; EPO R/Fc
T1 sequence (looked up): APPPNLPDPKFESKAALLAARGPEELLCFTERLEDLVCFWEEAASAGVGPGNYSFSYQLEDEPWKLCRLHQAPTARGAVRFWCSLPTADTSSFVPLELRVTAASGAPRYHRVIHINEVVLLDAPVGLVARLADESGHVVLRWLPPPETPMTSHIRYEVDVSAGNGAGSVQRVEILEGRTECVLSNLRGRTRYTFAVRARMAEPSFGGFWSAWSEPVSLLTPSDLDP

T2: rHuman Erythropoietin R/Fc Chimera, CF (R&D Systems Cat#963-ER) (human, UniProt P19235 25-250)
T2 construct: Bought from R&D Systems; also called EPO R; EPO R/Fc; Fc part of the bought chimera not given
T2 sequence (looked up): T1 sequence (looked up)

B1: Fab VH1-46_IGHD6-6*01_IGHJ1*01 S102A/S103P/S104F/H111F (H:APFF) & L6_IGKJ1*01 S76E (Fab, V domains shown)
VH: QVQLVQSGAEVKKPGASVKVSCKASGYTFTSYYMHWVRQAPGQGLEWMGIINPSGGSTSYAQKFQGRVTMTRDTSTSTVYMELSSLRSEDTAVYYCAREEYAPFSAEYFQFWGQGTLVTVSS
VL: EIVLTQSPATLSLSPGERATLSCRASQSVSSYLAWYQQKPGQAPRLLIYDASNRATGIPARFSGSGSGTDFTLTIESLEPEDFAVYYCQQRSNWPPWTFGQGTKVEIKR
notes: Tested as Fab expressed in E. coli; VH was cloned into Plasmid A (CH1 constant region, His6 and Flag tags) and the kappa VL into Plasmid C (kappa CL)
B2: Fab VH1-46_IGHD6-6*01_IGHJ1*01 S102A/S103P/S104F/H111F (H:APFF) & L6_IGKJ1*01 S76N (Fab, V domains shown)
VH: B1 VH
VL: B1 VL with E76N
notes: as for B1
B3: Fab VH1-46_IGHD6-6*01_IGHJ1*01 S102A/S103P/S104F/H111F (H:APFF) & L6_IGKJ1*01 S76P (Fab, V domains shown)
VH: B1 VH
VL: B1 VL with E76P
notes: as for B1
B4: Fab VH1-46_IGHD6-6*01_IGHJ1*01 S102A/S103P/S104F/H111F (H:APFF) & L6_IGKJ1*01 S76Q (Fab, V domains shown)
VH: B1 VH
VL: B1 VL with E76Q
notes: as for B1
B5: Fab VH5-51_IGHD5-18*01>3_IGHJ4*01 G100K/G104T (KT) & V3-4_IGLJ1*01 (Fab, V domains shown)
VH: EVQLVQSGAEVKKPGESLKISCKGSGYSFTSYWIGWVRQMPGKGLEWMGIIYPGDSDTRYSPSFQGQVTISADKSISTAYLQWSSLKASDTAMYYCARRKYSYTYDYFDYWGQGTLVTVSS
VL: QTVVTQEPSFSVSPGGTVTLTCGLSSGSVSTSYYPSWYQQTPGQAPRTLIYSTNTRSSGVPDRFSGSILGNKAALTITGAQADDESDYYCVLYMGSGISYVFGTGTKVTVL
notes: Tested as Fab; Fabs were expressed in E. coli from plasmid A (heavy chain CH1, His6 and Flag tags) and plasmid E (lambda CL); also called H:KT & L:wt
B6: Fab VH5-51_IGHD5-18*01>3_IGHJ4*01 G100K/G104T G54A & V3-4_IGLJ1*01 (Fab, V domains shown)
VH: B5 VH with G54A
VL: B5 VL
notes: Tested as Fab; CH1 with His6/Flag tags (plasmid A) and lambda CL (plasmid E) come from the expression vectors
B7: Fab VH5-51_IGHD5-18*01>3_IGHJ4*01 G100K/G104T S56A & V3-4_IGLJ1*01 (Fab, V domains shown)
VH: B5 VH with S56A
VL: B5 VL
notes: as for B6
B8: Fab VH5-51_IGHD5-18*01>3_IGHJ4*01 G100K/G104T T58A & V3-4_IGLJ1*01 (Fab, V domains shown)
VH: B5 VH with T58A
VL: B5 VL
notes: as for B6
B9: Fab VH1-46_IGHD6-6*01_IGHJ1*01 S102A/S103P/S104F/H111F (APFF) & L6_IGKJ1*01 S92M (Fab, V domains shown)
VH: B1 VH
VL: B1 VL with E76S, S92M
notes: Tested as Fab (CH1 with His6/Flag tags from Plasmid A; kappa CL from Plasmid C); also called APFF / S92M
B10: Fab VH1-46_IGHD6-6*01_IGHJ1*01 S102A/S103P/S104F/H111F (APFF) & L6_IGKJ1*01 S92N (Fab, V domains shown)
VH: B1 VH
VL: B1 VL with E76S, S92N
notes: Tested as Fab (CH1 with His6/Flag tags from Plasmid A; kappa CL from Plasmid C); also called APFF / S92N
B11: Fab VH1-46_IGHD6-6*01_IGHJ1*01 S102A/S103P/S104F/H111F (APFF) & L6_IGKJ1*01 S92V (Fab, V domains shown)
VH: B1 VH
VL: B1 VL with E76S, S92V
notes: Tested as Fab (CH1 with His6/Flag tags from Plasmid A; kappa CL from Plasmid C); also called APFF / S92V
B12: Fab VH1-46_IGHD6-6*01_IGHJ1*01 S102A/S103P/S104F/H111F S31A & L6_IGKJ1*01 (Fab, V domains shown)
VH: B1 VH with S31A
VL: not shown
notes: Tested as a Fab made in E. coli; The heavy chain vector (Plasmid A) adds CH1 with His6 and Flag tags; The light chain vector (Plasmid C) adds kappa CL; also called APFF S31A
B13: Fab VH1-46_IGHD6-6*01_IGHJ1*01 S102A/S103P/S104F/H111F T28A & L6_IGKJ1*01 (Fab, V domains shown)
VH: B1 VH with T28A
VL: not shown
notes: Tested as a Fab made in E. coli; The heavy chain vector (Plasmid A) adds CH1 with His6 and Flag tags; The light chain vector (Plasmid C) adds kappa CL; also called APFF T28A
B14: Fab VH1-46_IGHD6-6*01_IGHJ1*01 S102A/S103P/S104F/H111F T30A & L6_IGKJ1*01 (Fab, V domains shown)
VH: B1 VH with T30A
VL: not shown
notes: Tested as a Fab made in E. coli; The heavy chain vector (Plasmid A) adds CH1 with His6 and Flag tags; The light chain vector (Plasmid C) adds kappa CL; also called APFF T30A
B15: Fab VH1-46_IGHD6-6*01_IGHJ1*01 S102A/S103P/S104F/H111F Y33A & L6_IGKJ1*01 (Fab, V domains shown)
VH: B1 VH with Y33A
VL: not shown
notes: Tested as a Fab made in E. coli; The heavy chain vector (Plasmid A) adds CH1 with His6 and Flag tags; The light chain vector (Plasmid C) adds kappa CL; also called APFF Y33A

Each binder was assayed against T3, Recombinant Human DLL4 (delta-like protein 4) (human, UniProt Q9NR61 27-524) (assay: ELISA, DLL4 coated on plate, Fab in solution, absorbance at 450 nm).
T3 construct: Bought recombinant protein (R&D Systems Cat#1506-D4/CF); also called rHuman DLL4; Delta-like 4

Binder	ELISA (Signal-Noise)
B1	0.36
B2	0.28
B3	0.29
B4	0.32

These binders were tested against T3, Recombinant Human DLL4 (delta-like …) (assay: ECL (MSD) multispot binding assay, DLL4 immobilized, Fab in solution).

Binder	ECL Signal/Noise
B1	218
B2	118
B3	100
B4	187

What follows are binders tested against T4, Recombinant Human DLL4 (R&D Systems Cat#1506-D4/CF) (human, UniProt Q9NR61 27-524) (assay: ECL (MSD) multispot binding assay, Fab on immobilized recombinant human DLL4).
T4 construct: also called rHuman DLL4; delta-like protein 4

Binder	ECL Signal/Blank
B5	49.2
B6	4.1
B7	55
B8	102

These binders were tested against T4, Recombinant Human DLL4 (R&D Systems …) (assay: ECL (MSD) binding assay, Fab on immobilized recombinant human DLL4).

Binder	ECL signal
B5	588

These binders were tested against rHuman CD44/Fc Chimera (human, UniProt P16070 21-220) (assay: ECL multispot (MSD) binding assay; antigen spotted on plate, Fab in solution;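 also: purified Fab bound for 1 h at 20 °C, detected with a TAG-labelled antibody, electrochemiluminescence compared with each well's blank, signal-to-blank ratio of at least 4 scored as hit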).

Binder	ECL signal
B9	304
B10	336
B11	331

Each binder was assayed against rHuman IGF-1 sR (insulin-like growth factor-1 soluble receptor) (human, UniProt P08069 31-932) in the same assay as above.

Binder	ECL signal
B9	271
B10	312
B11	237

The binders below were run against rHuman ErbB2/Fc Chimera (human, UniProt P04626 23-652) in the same assay as above.

Binder	ECL signal
B9	301
B10	242
B11	246

The binders below were run against T5, rHuman P-Cadherin/Fc Chimera (human, UniProt P22223 108-654) in the same assay as above.
T5 construct: Bought from R&D Systems (Cat#861-PC)

Binder	ECL signal
B9	328
B10	271
B11	390

The binders below were run against T6, rHuman HGF R/c-MET/Fc Chimera (human, UniProt P08581 25-932) in the same assay as above.
T6 construct: also called HGF R/Fc
T6 sequence (P08581 25-932, change not shown): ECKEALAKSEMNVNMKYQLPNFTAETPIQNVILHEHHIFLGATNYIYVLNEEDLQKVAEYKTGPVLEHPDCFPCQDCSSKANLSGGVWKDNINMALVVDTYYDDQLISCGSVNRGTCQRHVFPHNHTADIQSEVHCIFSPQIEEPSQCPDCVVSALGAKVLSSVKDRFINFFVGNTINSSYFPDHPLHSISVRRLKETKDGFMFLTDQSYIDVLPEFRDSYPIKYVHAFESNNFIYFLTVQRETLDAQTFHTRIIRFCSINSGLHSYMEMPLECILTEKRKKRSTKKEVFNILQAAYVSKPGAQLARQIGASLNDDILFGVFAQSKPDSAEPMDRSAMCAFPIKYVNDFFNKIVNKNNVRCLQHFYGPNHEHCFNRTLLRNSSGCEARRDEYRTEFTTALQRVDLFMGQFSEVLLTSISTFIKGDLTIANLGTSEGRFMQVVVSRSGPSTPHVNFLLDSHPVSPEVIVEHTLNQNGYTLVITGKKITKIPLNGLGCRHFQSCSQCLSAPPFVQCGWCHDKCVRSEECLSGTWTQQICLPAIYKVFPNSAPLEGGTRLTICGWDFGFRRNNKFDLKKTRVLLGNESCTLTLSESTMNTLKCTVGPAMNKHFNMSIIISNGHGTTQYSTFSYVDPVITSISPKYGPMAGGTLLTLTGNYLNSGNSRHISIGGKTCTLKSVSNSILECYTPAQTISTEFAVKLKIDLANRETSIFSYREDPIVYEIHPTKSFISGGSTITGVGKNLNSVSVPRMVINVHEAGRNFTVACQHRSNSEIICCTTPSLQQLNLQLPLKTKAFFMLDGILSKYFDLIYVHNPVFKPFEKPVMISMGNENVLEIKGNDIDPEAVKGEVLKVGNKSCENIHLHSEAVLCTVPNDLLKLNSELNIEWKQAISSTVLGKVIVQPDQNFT

Binder	ECL signal
B9	346
B10	243
B11	288

The binders below were run against T1, rHuman Erythropoietin R/Fc Chimera in the same assay as above.

Binder	ECL signal
B9	340
B10	314
B11	368

What follows are binders tested against T7, rHuman Notch-1/Fc Chimera (human, UniProt P46531 19-526) in the same assay as above.
T7 construct: Bought from R&D Systems (Cat#3647-TK)

Binder	ECL signal
B9	385
B10	407
B11	347

Each binder was assayed against rHuman EGF R/Fc Chimera (human, UniProt P00533 25-645) in the same assay as above.

Binder	ECL signal
B9	367
B10	293
B11	305

These binders were tested against T8, Recombinant Human DLL4 (R&D Systems Cat#1506-D4/CF) (human, UniProt Q9NR61 27-524) (assay: ECL multispot (MSD) binding assay; antigen spotted on plate, Fab in solution, Ru-labelled anti-kappa detection;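 also: purified Fab in 1% BSA TBST incubated 1 h at 20 °C with shaking, signal compared with each well's blank, signal/blank ratio of 4 or above counted as binder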).
T8 construct: Bought from R&D Systems; also called delta-like protein 4; rHuman DLL4

Binder	ECL signal
B12	176000
B13	181000
B14	178000
B15	59500

Each binder was assayed against T9, rHuman ErbB2/Fc Chimera, CF (R&D Systems Cat#1129-ER) (human, UniProt P04626 23-652) in the same assay as above.
T9 construct: Bought from R&D Systems; also called human epidermal growth factor 2 receptor; Fc part of the bought chimera not given

Binder	ECL signal
B12	253
B13	316
B14	408
B15	298

The binders below were run against T10, rHuman CD44/Fc Chimera, CF (R&D Systems Cat#3660-CD) (human, UniProt P16070 21-220) in the same assay as above.
T10 construct: Bought from R&D Systems; Fc part of the bought chimera not given

Binder	ECL signal
B12	235
B13	497
B14	396
B15	290

Each binder was assayed against T11, rHuman EGF R/Fc Chimera, CF (R&D Systems Cat#344-ER) (human, UniProt P00533 25-645) in the same assay as above.
T11 construct: Bought from R&D Systems; also called epidermal growth factor receptor; Fc part of the bought chimera not given

Binder	ECL signal
B12	377
B13	329
B14	351
B15	281

Each binder was assayed against T12, rHuman IGF-1 sR, CF (R&D Systems Cat#391-GR) (human, UniProt P08069 31-932) in the same assay as above.
T12 construct: Bought from R&D Systems as a soluble receptor; also called insulin-like growth factor-1 soluble receptor

Binder	ECL signal
B12	268
B13	377
B14	343
B15	227

Each binder was assayed against T2, rHuman Erythropoietin R/Fc Chimera, CF … in the same assay as above.

Binder	ECL signal
B12	507
B13	477
B14	479
B15	430

The binders below were run against T13, rHuman P-Cadherin/Fc Chimera, CF (R&D Systems Cat#861-PC) (human, UniProt P22223 108-654) in the same assay as above.
T13 construct: Bought from R&D Systems; Fc part of the bought chimera not given

Binder	ECL signal
B12	262
B13	477
B14	337
B15	178

Each binder was assayed against T14, rHuman HGF R/c-MET/Fc Chimera, CF (R&D Systems Cat#358-MT/CF) (human, UniProt P08581 25-932) in the same assay as above.
T14 construct: Bought from R&D Systems; also called HGF R/Fc; hepatocyte growth factor receptor; Fc part of the bought chimera not given
T14 sequence (P08581 25-932, change not shown): as above

Binder	ECL signal
B12	358
B13	353
B14	353
B15	248

The binders below were run against T15, rHuman Notch-1/Fc Chimera, CF (R&D Systems Cat#3647-TK) (human, UniProt P46531 19-526) in the same assay as above.
T15 construct: Bought from R&D Systems; Fc part of the bought chimera not given

Binder	ECL signal
B12	427
B13	478
B14	368
B15	334
